This data set can be described thus: soluble on expression in E. coli; label from the status in PepcDB or PDB records.
For the sequence “MSTAEFAQLLENSILSPDQNIRLTSETQLKKLSNDNFLQFAGLSSQVLIDENTKLEGRILAALTLKNELVSKDSVKTQQFAQRWITQVSPEAKNQIKTNALTALVSIEPRIANAAAQLIAAIADIELPHGAWPELMKIMVDNTGAEQPENVKRASLLALGYMCESADPQSQALVSSSNNILIAIVQGAQSTETSKAVRLAALNALADSLIFIKNNMEREGERNYLMQVVCEATQAEDIEVQAAAFGCLCKIMSKYYTFMKPYMEQALYALTIATMKSPNDKVASMTVEFWSTICEEEIDIAYELAQFPQSPLQSYNFALSSIKDVVPNLLNLLTRQNEDPEDDDWNVSMSAGACLQLFAQNCGNHILEPVLEFVEQNITADNWRNREAAVMAFGSIMDGPDKVQRTYYVHQALPSILNLMNDQSLQVKETTAWCIGRIADSVAESIDPQQHLPGVVQACLIGLQDHPKVATNCSWTIINLVEQLAEATPSPIYNFYPALVDGLIGAANRIDNEFNARASAFSALTTMVEYATDTVAETSASISTFVMDKLGQTMSVDENQLTLEDAQSLQELQSNILTVLAAVIRKSPSSVEPVADMLMGLFFRLLEKKDSAFIEDDVFYAISALAASLGKGFEKYLETFSPYLLKALNQVDSPVSITAVGFIADISNSLEEDFRRYSDAMMNVLAQMISNPNARRELKPAVLSVFGDIASNIGADFIPYLNDIMALCVAAQNTKPENGTLEALDYQIKVLEAVLDAYVGIVAGLHDKPEALFPYVGTIFQFIAQVAEDPQLYSEDATSRAAVGLIGDIAAMFPDGSIKQFYGQDWVIDYIKRTRSGQLFSQATKDTARWAREQQKRQLSL”, the “soluble on expression in E. coli” value is recorded as “soluble”. With “MSTCTLRFKNDWLKIFTCPVPSSDFLSFVGVATIDAPQHAVLSLLYDIESATEWVWKTREMRVLQELADDNEGRVVYQVVSAPWPVSDREIISRSTAYKDPETGEVFIKIESLPDFIPETSNCVRVRKLEGAWNILPLSENSCRVVFRLHIEPAGEIPSWLANIAVIDTPYHTLNNMRDMVKREKYKNPLEHHHHHH”, the “soluble on expression in E. coli” value was “not soluble”. For “MSTDNLLQPKLIEATLGDYPVIQNMARFYVYDMSRYCGFISEEWTCPPDGLYESYDFKIYFTDPERKAFLIQIDNELAGFALLNKFGIQAVDWSMGEFFILAKFQGKGIGQSVAHQLWRTHPGEWEISVIPENIPALSFWRQAVMTYTLGRYKEQIKTVNYDIHQTQRIILSFNTQKQNKSCHSIPKKPITIDFVDNIPKSLEKKMTEDLIAYERTHGIDVNYKRFSIVLSEEGVTCGVINAFTAFAEIYIDDIWVDKAYRGKGYGKKLLQTLENHFKGQGFNNINLCTSAFQAPEFYRKCGYTAEFTRINQANPKLSKTFFVKFFDDENQTQGLF”, the “soluble on expression in E. coli” value was “soluble”. As to “MSTDSTNYAAKHESLGKSVQRELQKTQSQLRQVVRKMQSKYNINNKARVAEISLLRQMQSQFSRKYVNKNLGNSNTLAQQGSYTKKDGTTAQAGDLLLAADNLHSRLTDKMLSISHVRENTISPFVLGCLKQITINAYHYLK”, the “soluble on expression in E. coli” value was “not soluble”. Under “MSTFRLALIQLQVSSIKSDNLTRACSLVREAAKQGANIVSLPECFNSPYGTTYFPDYAEKIPGESTQKLSEVAKESSIYLIGGSIPEEDAGKLYNTCSVFGPDGSLLVKHRKIHLFDIDVPGKITFQESKTLSPGDSFSTFDTPYCKVGLGICYDMRFAELAQIYAQRGCQLLVYPGAFNLTTGPAHWELLQRARAVDNQVYVATASPARDDKASYVAWGHSTVVDPWGQVLTKAGTEETILYSDIDLKKLAEIRQQIPILKQKRADLYTVESKKP” stands “soluble”; under “MSTFSFIIVNNEQVRIHDIQGKSHMSPYNGKKVNNVEGVVTALDKNGFYIEDNQPDNDPATSEGMYVYKKDANVAVGDLIQVDGVVEEYVGPGYAERFETDLTTTEIKASRVVVIAKDQSLPAPIVLGENGVKIPDQIIDNDAFGLFDPNEDAIDFYESIEGMRVTMPTPKVIAPQKNGNLYVTVKNGGDKIVTQYGTPLLDENQLNPERLSVKVPRDYVAKVGDTFTGDITGVVGYDYGSFRISPITELPAVVDGGFKQVGANIQPRLDKLTVATYNIENFSANKKETTDEKVKALAYSIKYNLKMPDIIGVEEMQDNNGLEHHHHHH”, “soluble”.

Take “MSTKTMKEKAVELLQKCEVVTLASVNKEGYPRPVPMSKIAAEGISTIWMSTGADSLKTIDFLSNPKAGLCFQEKGDSVALMGEVEVVTDEKLKQELWQDWFIEHFPGGPTDPGYVLLKFTANHATYWIEGTFIHKKLD”: the “soluble on expression in E. coli” value is reported as “soluble”. For “MSTLQAAAHGRIVQLSRIRKEIADLAKNKRRFIKDFRKIEKCKDIFQFKIIGDGVLYKNMIFTLTLDVNVEYPFKPPYLKFCHNVYHPNVDPVTCELCSPMLLQENWKPETTMEDVLLNLIVLLNEPDLSRPVNIDAAHDYIHNKVEFVKKSTELAKKWN” the value was “not soluble”; for “MSTPTLSPSTEKLIPIIGLSVSGTFSPRPIATTAHSVVFKVDSQLYRREVIVKIVDRKSIPANVAEKFFPRELEITMKVRHPHIARCLAITRPAPTKFVIISDYYERGTLLEWILQKKRLKEHPLAATLFRQLIEAINYLHKRGIVHRDVKLENILIDGNGDIKLIDFGFARHIERRERSRSFCGTQPYTCPQITKYRPYEAYAADYYACGIVLFTMVTGKWPNMTENPNIYPEGYPSRSCRKLVSSLLDGNEMSRAGYDECVNSEWMGVHPVWMFANHAYFYEEVRGEDPNSSNCEMSEI”, “not soluble”. Take “MSTRKLNKVMVQPVNLIFRYLQNRTRVQIWLYEDVTHRLEGYIIGFDEFMNVVFDEAEEVNMKTKGRNKIGRILLKGDNITLIHAAQQEA”: the “soluble on expression in E. coli” value was “not soluble”. Regarding “MSTTVGRPSNEIASCQVCHSTERTRLYFGITSCAACAAFFRRSDGIRYMCTATNSCTISHDMKFFCRACRYTSCIRAGMVMSRNALATARKAPNNIIPREPTPRSVPSLEEVDGFSKILNISNGDLLKYYVKEVESIMAQQRYGEQKNALQVKSVNDLMIVTAYQEGTSLESCFNCPGVDILYNEDVEVVHKYFKFSNTWIDSLLAPTSPLDPSCNERISEFIHLLKSTLGSTLAQLNLNIIEYAAFKSFCIWKLVYHKTSISMKIVAQEHYEGVTSALRKYYRKNIKMSELEMATRIGDITLQIITVSNLYNDMARMYHQTGLQL”, the “soluble on expression in E. coli” value was “not soluble”. Regarding “MSVERSLEAWEEVQRHGQDLADRLAQGFNGLIQINPPSFPSKLFDLEFSSQHFGIRDSRFSIHQPINGVSAILDIGNKIGQAGVDFGSGLNVMVQQFFRRLPVPFRHDENVFVSTERDTVTRSHRAYVDTKENSAFSKTDTASSGTVYEEKVTEFDLRTIGLHRRAKGTVELSSSYETRTSSMEHSLAARGDLWRVEASTSNSPVRDDSSSLFLLQLGPLLFLRDSTLLLPVHLSKQHLLWYGYDRKKGMHSLCPALWSKHRRWLMMSMLCLNPLDCSFVDLQFPNGQLTYVSGEGLTTSVFVPLCGGLLQAQGQYPGDMRFSFSCKSKQGTRITPMINWPDKSLALGVSQALAWRRSGVMLKPAIQLSVCSTFGGSNPGIKTEVIQSLNDNINMICGCAFTAHPSTFASVSFGRSKWNGNIGRTGIVVRADTPLPNVARPSFSIQINNAFEF”, the “soluble on expression in E. coli” value was “soluble”.

As for “MSVKTWRKIAIDIIRDFDHNIMPLFGNPKASETISISPSGDETKVVDKVAENIIISKFKDLGVNVVSEEIGRIDQGSDYTVVVDPLDGSYNFINGIPFFAVSVAIFHEKDPIYAFIYEPIVERLYEGIPGKGSYLNGEKIKVRELAEKPSISFYTKGKGTKIIDKVKRTRTLGAIALELAYLARGALDAVVDIRNYLRPTDIAAGVVIAREAGAIVKDLDGKDVEITFSATEKVNIIAANNEELLETILRSIEK”, the “soluble on expression in E. coli” value is listed as “soluble”. Take “MSVLAVQAQRTSIGITAGTGTAWLSDTDRDVVFNPVWNAGATLVYSSETHWGFGADIKYSREGVKFTYAGTGNYNGQTMTTRVGSDFIRIPLRAIYFFNKNENAFRPNVSLGPSFGILTGGEIKTYDGDKNVIGTSKVSDSFRDVDFGLQGTAGASIMLSDGLWFSADIVYYQGLNKQNKNGTNTMLNSNVGINLGLRIGVGR”: the “soluble on expression in E. coli” value is recorded as “not soluble”. Under “MSVQNGFTAKIIRFVPHFVALRLSWTHNDLKAEGLEQFVEECLPAIRENNPQVKYFLQRSYTTCDPFVVGEYSWLRHRKKRVNWKSKEQVLSMIEEMSIGGDYREGYKRGVNRRLPRGQELWDTETMGHDVFHVTSKWKADIPEEDELPITAKTHPNFTYRKY” stands “not soluble”; under “MSVSPVQPDPSVIGGVPKAPFVLKPNLARLFNDRASRFEALAQGSHLAPYLNFLAGITRIQSELVSALPPPEPVPADRVERARANAMPPIDRAAMGGSPDCREVLQQFFEKAEALEKPAAAAEALAQVRTADEEMLTWMIGNVMADDLPVESLAHHLYVAAAMQIQAARLAAGLDGSRLVPIRVGVCPACGGRPVASMVIGFHGAEGARYASCSCCATMWNEVRVKCLACGSTKGIGYQAVETGDEEATVKAEVCDTCNSWMKILYQNKNPSLDVVADDVASLGLDLLMKDTEYKRAGFDPFLMGY”, “not soluble”; under “MSVTVFIPGDSAALAVGANRVAEAIAREAASRNLDVQIVRNGSRGMLWLEVLVEVRTEHGRIAYGPVKAADVTSLFDADFLDGGDHRLCLGPTKDIPFLKNQTRLTFARCGVTDPLSLEDYRNYQGMKGLEKAVTMEPLAIVAQVTESGLRGRGGAGFPTGIKWKTVADARADQKYIVCNADEGDSGTFADRMIMEGDPFVLIEGMAIAGLAVGATKGFIYTRSEYPYAIKVMEKAIEIARREGILGSSVLGSGRAFDMEVRMGAGAYVCGEETSLLNSLEGKRGTVRAKPPLPALQGLFGKPTVVNNVISLASIPVIMDRGAAFYRDFGVGRSHGTIPIQLAGNIRYGGLYETAFGLTLGQLVNDIGGGTITGRPVKAVQVGGPLGAYFPVSLFDTIFDYEAFTAAGGLIGHAGIVVFDDTADMLHQARFALEFCAVESCGKCTPCRIGSTRGVETVDKIALGIEREKNTALLEDLCETMKFGSLCALGGFTPYPVMSALRHFPQDFAPIPRVEAAEAAALEHHHHHH”, “not soluble”.

Turning to “MSVVLGENELVIRGCILYEVLNKKPIQESYENFCRNVGNDVMSYNDFDFWFYRFYNGNHDLHYDRSADPASPLLSNMPLNIIDEVLNRMEILNLLVLMKVSRNFRKVVQNMKMVFDCIEVDFDEHLAITYNSRHKIKYRPNDTAQYSPFRQEPTCTCGRRIRTSDEDNRKEFFVTDEDYIELGVKDLKLIMENQNVQLKKFQFSNGSNQDTQKKFIDRAEIAFKSAKSSTRTVEAHYNSLAEIAQLLPIFHAGKLEEINFKQGARTDGYEQLVGLEQWKNARKFDGFWSLNVPIEHCLHFECFKDHFVRFKEEDAMKLRYMLDRSTNFGYAEITIDPMNVSLLKRAFDVNNDNKFEFVYQSPDNGSFEVHCALRVLYITKSGYKFKYNNKSASTFYKPPPIPAPPALFLRDYQFFDPRPRMPTDRSRYRPF”, the “soluble on expression in E. coli” value was “not soluble”. With “MSWFLLNRNLTLLEPYDWKLSRTVLRGERGSNASDLPGKAIAKEGMADYIRYLFKTVRKFYGEAVVVTQEVDDIISSPIVKESIVNNSDCKILLDQRKYLNKFSQIQSLLGLTDKEKAQILSVNMSNDPRRKYKEVWFGLGGVQSTVYATEVSLEEYLCYSTEESEKVELEGLTKELGGNIELAIRRLAEKKRNQNNEIP”, the “soluble on expression in E. coli” value is “not soluble”.

Turning to “MSWWKRIFSRSESSTTESNSASSLPAADLDDDLLVEVKNLVAITGPKMPYELARLLKISHARATRLAAAANAQNPTPSRARTSDAQAQQPAAASPKPPAEPVAAEPKKKRAKKATPVEAGLPPLTGKITGGHACAFDVVGESYYQPALRRLRNGRHMATDNDFVADIVAEPDNPHDPNACAVYIEGFKVGYLPRDAAADFQQQVADMGVTGTWRLQTKAKLSGGWGDRPMVGVLLSLPKSLEHHHHHH”, the “soluble on expression in E. coli” value is “not soluble”.

Consider “MSWWQDMDQRGGVSSPSGALASAEPAPASVTLAELLHLVQKGQEVPGLEKRHITATHGEPTASLLPRRPKPWEDAGSAASPCTIALDTRTQPPTIEERSRGSPAAQLDGGPRVS”, for which the “soluble on expression in E. coli” value was “soluble”.

(Values after the DeepSol protein solubility set.)
